# Results published in patent publication US9457082B2, “Liposome including complex of hydrophobic active ingredient and polypeptide and use of the liposome” (Samsung Electronics Co., Ltd., priority 2013, dated 2016).
# System: HepG2 liver carcinoma cells
# Assay: Cytotoxicity, cell viability by CCK-8 kit
# Format: cell-based
# Details: about 5,000 HepG2 cells, 37° C., 46 hours
# Protocol: The liposomes prepared in the same manner as in Example 1 were incubated with cells to confirm cell proliferation.
# The liposomes prepared in the same manner as in Example 1 were added in different concentrations to about 5,000 HepG2 liver carcinoma cells, followed by being incubated at a temperature of 37° C. for 46 hours. The viability of the cultured cells was measured using a CCK-8 kit (Dojindo), and the results were shown in FIG. 7 (●: albumin, ▪: complex containing SRF and albumin).
substance,measurement,value
"albumin: albumin alone, control in the cytotoxicity test; Bovine Serum Albumin in Example 1",toxicity (cell viability),not toxic
